Drawing on US20240141007A1 (XILIO DEVELOPMENT, published 2024), this text covers Kd for 7 molecules.

Usually Kd stands for the equilibrium constant for the complex coming apart. Higher therefore signals lower affinity.

The labels stand for the following.
B1: UCM76 (Fc fusion)
chain 1: DKTHTCPPCPAPELLGGPSVFLFPPKPKDTLMISRTPEVTCVVVDVSHEDPEVKFNWYVDGVEVHNAKTKPREEQYASTYRVVSVLTVLHQDWLNGKEYKCKVSNKALPAPIEKTISKAKGQPREPQVYTLPPCRDELTKNQVSLWCLVKGFYPSDIAVEWESNGQPENNYKTTPPVLDSDGSFFLYSKLTVDKSRWQQGNVFSCSVMHEALHNRFTQKSLSLSPGGSPGAPTSSSTKKTQLQLEHLLLDLQMILNGINNYKNPKLTAMLTAKFAMPKKATELKHLQCLEEALKPLEEVLNLAQSKNFHLRPRDLISNINVIVLELKGSETTFMCEYADETATIVEFLNRWITFAQSIISTLT
chain 2: DKTHTCPPCPAPELLGGPSVFLFPPKPKDTLMISRTPEVTCVVVDVSHEDPEVKFNWYVDGVEVHNAKTKPREEQYASTYRVVSVLTVLHQDWLNGKEYKCKVSNKALPAPIEKTISKAKGQPREPQVCTLPPSRDELTKNQVSLSCAVKGFYPSDIAVEWESNGQPENNYKTTPPVLDSDGSFFLVSKLTVDKSRWQQGNVFSCSVMHEALHNHYTQMPYDLYHPNFMLTQPHSVSESPGKTVTISCTRSSGSIASNYVQWYQQRPGSSPTTVIYEDNQRPSGVPDRFSGSIDSSSNSASLTISGLKTEDEADYYCQTYDSIDVYFGGGTKLTVLGGGGGSGGGGSGGGGSGGGGSQLQLQESGPGLVKPSQTLSLTCTVSGGSISSGGYYWSWIRQHPGKGLEWIGYIYKSGSAYYSPSLKSRVTISVDTSKNQFSLKLSSVTAADTAVYYCARTPTVTGDWFDPWGRGTLVTVSS
B2: UCM75 (Fc fusion)
chain 1: DKTHTCPPCPAPELLGGPSVFLFPPKPKDTLMISRTPEVTCVVVDVSHEDPEVKFNWYVDGVEVHNAKTKPREEQYASTYRVVSVLTVLHQDWLNGKEYKCKVSNKALPAPIEKTISKAKGQPREPQVYTLPPCRDELTKNQVSLWCLVKGFYPSDIAVEWESNGQPENNYKTTPPVLDSDGSFFLYSKLTVDKSRWQQGNVFSCSVMHEALHNRFTQKSLSLSPGGSPG
chain 2: DKTHTCPPCPAPELLGGPSVFLFPPKPKDTLMISRTPEVTCVVVDVSHEDPEVKFNWYVDGVEVHNAKTKPREEQYASTYRVVSVLTVLHQDWLNGKEYKCKVSNKALPAPIEKTISKAKGQPREPQVCTLPPSRDELTKNQVSLSCAVKGFYPSDIAVEWESNGQPENNYKTTPPVLDSDGSFFLVSKLTVDKSRWQQGNVFSCSVMHEALHNHYTVPLSLYSGG
B3: UCM79 (Fc fusion)
chain 1: DKTHTCPPCPAPELLGGPSVFLFPPKPKDTLMISRTPEVTCVVVDVSHEDPEVKFNWYVDGVEVHNAKTKPREEQYASTYRVVSVLTVLHQDWLNGKEYKCKVSNKALPAPIEKTISKAKGQPREPQVYTLPPCRDELTKNQVSLWCLVKGFYPSDIAVEWESNGQPENNYKTTPPVLDSDGSFFLYSKLTVDKSRWQQGNVFSCSVMHEALHNRFTQKSLSLSPGGSPG
chain 2: DKTHTCPPCPAPELLGGPSVFLFPPKPKDTLMISRTPEVTCVVVDVSHEDPEVKFNWYVDGVEVHNAKTKPREEQYASTYRVVSVLTVLHQDWLNGKEYKCKVSNKALPAPIEKTISKAKGQPREPQVCTLPPSRDELTKNQVSLSCAVKGFYPSDIAVEWESNGQPENNYKTTPPVLDSDGSFFLVSKLTVDKSRWQQGNVFSCSVMHEALHNHYTAPAGLIVPYN
B4: UCM80 (Fc fusion)
chain 1: DKTHTCPPCPAPELLGGPSVFLFPPKPKDTLMISRTPEVTCVVVDVSHEDPEVKFNWYVDGVEVHNAKTKPREEQYASTYRVVSVLTVLHQDWLNGKEYKCKVSNKALPAPIEKTISKAKGQPREPQVYTLPPCRDELTKNQVSLWCLVKGFYPSDIAVEWESNGQPENNYKTTPPVLDSDGSFFLYSKLTVDKSRWQQGNVFSCSVMHEALHNRFTQKSLSLSPGGSPG
chain 2: DKTHTCPPCPAPELLGGPSVFLFPPKPKDTLMISRTPEVTCVVVDVSHEDPEVKFNWYVDGVEVHNAKTKPREEQYASTYRVVSVLTVLHQDWLNGKEYKCKVSNKALPAPIEKTISKAKGQPREPQVCTLPPSRDELTKNQVSLSCAVKGFYPSDIAVEWESNGQPENNYKTTPPVLDSDGSFFLVSKLTVDKSRWQQGNVFSCSVMHEALHNHYTQPVSLRSGS
B5: UCM78 (Fc fusion)
chain 1: DKTHTCPPCPAPELLGGPSVFLFPPKPKDTLMISRTPEVTCVVVDVSHEDPEVKFNWYVDGVEVHNAKTKPREEQYASTYRVVSVLTVLHQDWLNGKEYKCKVSNKALPAPIEKTISKAKGQPREPQVYTLPPCRDELTKNQVSLWCLVKGFYPSDIAVEWESNGQPENNYKTTPPVLDSDGSFFLYSKLTVDKSRWQQGNVFSCSVMHEALHNRFTQKSLSLSPGGSPG
chain 2: DKTHTCPPCPAPELLGGPSVFLFPPKPKDTLMISRTPEVTCVVVDVSHEDPEVKFNWYVDGVEVHNAKTKPREEQYASTYRVVSVLTVLHQDWLNGKEYKCKVSNKALPAPIEKTISKAKGQPREPQVCTLPPSRDELTKNQVSLSCAVKGFYPSDIAVEWESNGQPENNYKTTPPVLDSDGSFFLVSKLTVDKSRWQQGNVFSCSVMHEALHNHYTQRPLALWRS
B6: UCM77 (Fc fusion)
chain 1: DKTHTCPPCPAPELLGGPSVFLFPPKPKDTLMISRTPEVTCVVVDVSHEDPEVKFNWYVDGVEVHNAKTKPREEQYASTYRVVSVLTVLHQDWLNGKEYKCKVSNKALPAPIEKTISKAKGQPREPQVYTLPPCRDELTKNQVSLWCLVKGFYPSDIAVEWESNGQPENNYKTTPPVLDSDGSFFLYSKLTVDKSRWQQGNVFSCSVMHEALHNRFTQKSLSLSPGGSPGAPTSSSTKKTQLQLEHLLLDLQMILNGINNYKNPKLTAMLTAKFAMPKKATELKHLQCLEEALKPLEEVLNLAQSKNFHLRPRDLISNINVIVLELKGSETTFMCEYADETATIVEFLNRWITFAQSIISTLT
chain 2: DKTHTCPPCPAPELLGGPSVFLFPPKPKDTLMISRTPEVTCVVVDVSHEDPEVKFNWYVDGVEVHNAKTKPREEQYASTYRVVSVLTVLHQDWLNGKEYKCKVSNKALPAPIEKTISKAKGQPREPQVCTLPPSRDELTKNQVSLSCAVKGFYPSDIAVEWESNGQPENNYKTTPPVLDSDGSFFLVSKLTVDKSRWQQGNVFSCSVMHEALHNHYTRAAAVKSPG
B7: UCM81 (Fc fusion)
chain 1: DKTHTCPPCPAPELLGGPSVFLFPPKPKDTLMISRTPEVTCVVVDVSHEDPEVKFNWYVDGVEVHNAKTKPREEQYASTYRVVSVLTVLHQDWLNGKEYKCKVSNKALPAPIEKTISKAKGQPREPQVYTLPPCRDELTKNQVSLWCLVKGFYPSDIAVEWESNGQPENNYKTTPPVLDSDGSFFLYSKLTVDKSRWQQGNVFSCSVMHEALHNRFTQKSLSLSPGGSPG
chain 2: DKTHTCPPCPAPELLGGPSVFLFPPKPKDTLMISRTPEVTCVVVDVSHEDPEVKFNWYVDGVEVHNAKTKPREEQYASTYRVVSVLTVLHQDWLNGKEYKCKVSNKALPAPIEKTISKAKGQPREPQVCTLPPSRDELTKNQVSLSCAVKGFYPSDIAVEWESNGQPENNYKTTPPVLDSDGSFFLVSKLTVDKSRWQQGNVFSCSVMHEALHNHYTPANLVAPDP

For this experiment, the target named is T1, human FcRn (human, UniProt P55899 24-297; P61769 21-119).
T1 construct: also called hFcRn
T1 sequence (P55899 24-297 limits assumed, chain 1 of 2): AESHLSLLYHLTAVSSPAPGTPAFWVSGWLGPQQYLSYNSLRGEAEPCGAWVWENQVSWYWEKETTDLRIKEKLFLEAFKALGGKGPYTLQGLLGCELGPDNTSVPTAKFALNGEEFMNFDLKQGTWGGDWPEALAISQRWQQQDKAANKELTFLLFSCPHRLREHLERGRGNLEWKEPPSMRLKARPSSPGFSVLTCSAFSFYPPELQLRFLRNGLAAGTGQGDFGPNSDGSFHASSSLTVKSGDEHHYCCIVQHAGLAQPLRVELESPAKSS
T1 sequence (P61769 21-119 limits assumed, chain 2 of 2): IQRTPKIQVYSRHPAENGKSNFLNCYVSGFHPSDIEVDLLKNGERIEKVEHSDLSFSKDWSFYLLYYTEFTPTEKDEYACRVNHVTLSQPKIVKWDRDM
As to the kind of experiment: SPR, hFcRn as ligand. Background: In SPR one partner is held on a chip, and binding of the other changes the refractive index at the surface.
From the text: Surface Plasmon Resonance (SPR) protein binding assay was used to measure FcRn binding.
For B1, binding was characterised by a dissociation constant (Kd) of 551 nM.
Take B2: binding was put at a Kd of 1490 nM.
As for B3, the Kd was 1310 nM.
Take B4: the Kd is 565 nM.
The result for B5 reads 181 nM; that for B6, 312 nM.
The result for B7 reads 1100 nM.
